Source: article PMC4961225, “The Molecular Basis for Ubiquitin and Ubiquitin-like Specificities in Bacterial Effector Proteases” (Molecular Cell, 2016)

Target: T1, ubiquitin (uniformly 15N-labeled Ub) (UniProt P0CG48 1-76)
T1 construct: also called 15N-Ub
Assay: NMR titration; uniformly 15N-labeled Ub observed (1H,15N-HSQC TROSY; 80 μM Ub in Figure 6), unlabeled partner added; 25°C
Conditions: both partners purified

B1: SseL (aa 24–340) (domain or fragment)
chain: VSDEALTLLFSAVENGDQNCIDLLCNLALRNDDLGHRVEKFLFDLFSGKRTGSSDIDKKINQACLVLHQIANNDITKDNTEWKKLHAPSRLLYMAGSATTDLSKKIGIAHKIMGDQFAQTDQEQVGVENLWCGARMLSSDELAAATQGLVQESPLLSVNYPIGLIHPTTKENILSTQLLEKIAQSGLSHNEVFLVNTGDHWLLCLFYKLAEKIKCLIFNTYYDLNENTKQEIIEAAKIAGISESDEVNFIEMNLQNNVPNGCGLFCYHTIQLLSNAGQNDPATTLREFAENFLTLSVEEQALFNTQTRRQIYEYSLQ
B1: binds.
